Values belong to the molecule of their own block, whether it stands above or below them.
What was measured:
[1] = biological target: cynomolgus BLyS (full length, arginine to histidine at position 132) on CHO-K1 cells (cynomolgus); experiment: flow cytometry, CHO-K1 cynoBLyS cells, antibody 0 nM
[2] = biological target: cynomolgus BLyS (full length, arginine to histidine at position 132) on CHO-K1 cells (cynomolgus); experiment: flow cytometry, CHO-K1 cynoBLyS cells, antibody 0.0213 nM
[3] = biological target: biotinylated hBLyS-ECD (human) (UniProt Q9Y275); experiment: blocking ELISA: biotinylated hBLyS-ECD on coated BAFF R, antibody 4 nM
[4] = biological target: biotinylated hBLyS-ECD (human) (UniProt Q9Y275); experiment: ELISA, biotinylated hBLyS-ECD captured on streptavidin; antibody 0.00427 nM
[5] = biological target: biotinylated hBLyS-ECD (human) (UniProt Q9Y275); experiment: ELISA, biotinylated hBLyS-ECD captured on streptavidin; antibody 66.7 nM
[6] = biological target: cynomolgus BLyS (full length, arginine to histidine at position 132) on CHO-K1 cells (cynomolgus); experiment: flow cytometry, CHO-K1 cynoBLyS cells, antibody 66.7 nM
[7] = biological target: cynomolgus BLyS (full length, arginine to histidine at position 132) on CHO-K1 cells (cynomolgus); experiment: flow cytometry, CHO-K1 cynoBLyS cells, antibody 0.534 nM
[8] = biological target: human BLyS (full length, arginine to histidine at position 132) on CHO-K1 cells (human) (UniProt Q9Y275); experiment: flow cytometry, CHO-K1 hBLyS cells, antibody 0.00427 nM
Chain of human BLyS (full length, arginine to histidine at position 132) on CHO-K1 cells (human) (Q9Y275 whole entry R130H, the tested form may be a part): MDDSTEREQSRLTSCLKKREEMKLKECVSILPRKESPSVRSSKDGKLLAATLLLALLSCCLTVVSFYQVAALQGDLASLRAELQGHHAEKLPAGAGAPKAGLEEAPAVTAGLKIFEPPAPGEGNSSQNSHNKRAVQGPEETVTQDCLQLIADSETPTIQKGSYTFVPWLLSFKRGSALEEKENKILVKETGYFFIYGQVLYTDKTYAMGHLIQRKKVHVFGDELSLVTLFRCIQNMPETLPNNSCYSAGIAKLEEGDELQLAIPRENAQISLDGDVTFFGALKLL

biotinylated hBLyS-ECD [9] = biological target: T1, biotinylated hBLyS-ECD (human, UniProt Q9Y275 134-285, biotinylated with Biotin-X-X-NHS (molar ratio 7:1); sites not stated); experiment: BAFF R-coated ELISA, biotinylated hBLyS-ECD bound in presence of antibody 100 nM
T1 construct: also called biotinylated immunogen; biotinylated hBLvS-ECD

biotinylated hBLyS-ECD [10] = biological target: T1, biotinylated hBLyS-ECD; experiment: ELISA on captured biotinylated hBLyS-ECD; antibody 0 nM (background)
biotinylated hBLyS-ECD [11] = biological target: T1, biotinylated hBLyS-ECD; experiment: ELISA on captured biotinylated hBLyS-ECD; antibody 66.7 nM
biotinylated hBLyS-ECD [12] = biological target: T1, biotinylated hBLyS-ECD; experiment: BAFF R-coated ELISA, biotinylated hBLyS-ECD bound in presence of antibody 0.8 nM
[13] = biological target: T2, extracellular domain of human BLyS protein (hBLyS-ECD), His-tagged, Ala134-Leu285 (human, UniProt Q9Y275 134-285); experiment: SPR (Biacore), antibody captured by anti-human Fc, hBLyS-ECD as analyte
T2 construct: Expressed in HEK293 cells and purified on a Ni column; also called immunogen
Experimental: Affinity constants were determined using a Biacore X100 instrument (purchased from GE Healthcare). Detailed operations and methods referred to the instrument manuals and detailed methods provided by manufacturers, specifically: determining affinity constant using a CM5 chip (Sensor Chip CM5, purchased from GE Healthcare). […] Then 1 M ethanolamine was injected in chip to block the remaining activation sites. After the antibody to be tested (i.e., the human BLyS antibody prepared by Embodiment 2) was captured by chip, 7 different gradient of immunogen dilutions (i.e., hBLyS-ECD) prepared by Embodiment 1 were injected and the binding and dissociation of antigen with antibody was detected by a Biacore instrument. The dissociation constant and binding constant were then fitted by Biacore X100 Evaluation Software 2.0, while the affinity constant was the ratio of dissociation constant to binding constant.
The binding and dissociation between antibody and antigen was detected by Biacore.

biotinylated hBLyS-ECD [14] = biological target: T1, biotinylated hBLyS-ECD; experiment: BAFF R-coated ELISA, biotinylated hBLyS-ECD bound in presence of antibody 20 nM
biotinylated hBLyS-ECD [15] = biological target: T1, biotinylated hBLyS-ECD; experiment: BAFF R-coated ELISA, biotinylated hBLyS-ECD bound in presence of antibody 0.16 nM
biotinylated hBLyS-ECD [16] = biological target: T3, biotinylated hBLyS-ECD (human, UniProt Q9Y275 134-285, biotinylated with Biotin-X-X-NHS (molar ratio 7:1), sites not stated); experiment: ELISA: biotinylated hBLyS-ECD captured on streptavidin, antibody titrated, HRP secondary antibody
T3 construct: The hBLyS-ECD of Embodiment 1 after biotinylation (Embodiment 2); also called biotinylated immunogen; BLyS protein; not shown: His tag of the pCPC vector
Experimental: Streptavidin was first diluted to a final concentration of 1.0 μg/mL with PBS, and then 50 μL of diluted streptavidin per well was aliquoted into 96-well ELISA plate, which was subsequently sealed with plastic film and incubated at 4° C. overnight. On the next day the plate was washed four times with the plate washing buffer [PBS buffer containing 0.05% (v/v) Tween20] and added with the blocking solution [PBS buffer containing 0.05% (v/v) Tween20 and 1% (w/w) BSA] and blocked for 2 hours at 37° C. The blocking solution was removed, the biotinylated hBLyS-ECD prepared in Embodiment 2 was diluted with PBS to a final concentration of 50 ng/mL and then aliquoted into the 96-well ELISA plate at 50 μL per well and incubated for 1 hour at 37° C. After rinsing the plate four times with the plate washing buffer [PBS buffer containing 0.05% (v/v) Tween20], 100 μl of the purified lead antibody harvested in Embodiment 1 and 2 was pipetted into each well. After incubation for 1 hour at 37° C., the plate was rinsed four times with the plate washing buffer [PBS buffer containing 0.05% (v/v) Tween20]. HRP-labeled (horseradish peroxidase) secondary antibody (purchased from Sigma) was added in and incubated at 37° C. for 1 hour. […] A₄₅₀ₙₘ values were read via an ELISA plate reader (SpectraMax M5e purchased from Molecular Devices) and the results were shown in FIGS. 5A-5B and Table 10.

Chain of cynomolgus BLyS (full length, arginine to histidine at position 132) on CHO-K1 cells (cynomolgus) (Q9Y275 other isoform, or with tags, fused parts or gaps limits assumed): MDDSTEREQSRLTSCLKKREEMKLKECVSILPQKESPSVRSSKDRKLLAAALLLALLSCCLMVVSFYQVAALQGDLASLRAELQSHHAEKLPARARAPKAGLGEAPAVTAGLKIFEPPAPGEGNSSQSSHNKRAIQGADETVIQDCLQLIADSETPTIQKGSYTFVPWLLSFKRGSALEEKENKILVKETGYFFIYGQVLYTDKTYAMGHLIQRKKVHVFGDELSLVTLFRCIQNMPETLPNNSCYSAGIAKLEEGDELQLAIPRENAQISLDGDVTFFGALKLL

MFI [1]: 20.7 MFI
MFI [2]: 22.4 MFI
OD450 nm [3]: 1.09 OD450 nm
OD450 nm [4]: 0.108
OD450 nm [5]: 0.148
MFI [6]: 44.2 MFI
MFI [7]: 22.6 MFI
MFI [8]: 32.3 MFI
Molecule: hIgG Control (antibody)

MFI [1]: 19.8 MFI
MFI [2]: 19.8 MFI
OD450 nm [3]: 1.41 OD450 nm
OD450 nm [4]: 0.0695
OD450 nm [5]: 0.0708
MFI [6]: 21.6 MFI
MFI [7]: 20 MFI
MFI [8]: 30.9 MFI
Molecule: mIgG Control (antibody)

OD450 nm (biotinylated hBLyS-ECD [9]): 0.474 OD450 nm
OD450 nm (biotinylated hBLyS-ECD [10]): 0.122 OD450 nm
OD450 nm (biotinylated hBLyS-ECD [11]): 3.3 OD450 nm
OD450 nm (biotinylated hBLyS-ECD [12]): 1.47 OD450 nm
Kd [13]: 1490 pM
koff [13]: 0.000179 s⁻¹
kon [13]: 121000 M⁻¹ s⁻¹
OD450 nm (biotinylated hBLyS-ECD [14]): 0.717 OD450 nm
OD450 nm (biotinylated hBLyS-ECD [15]): 1.79 OD450 nm
B3: c97A3C2H4 (antibody, V domains shown)
VH: EVKLVESGGGLVQPGGSLKLSCAASGFTFSTYTMSWVRQTPEKRLEWVAYISYGGGSTSYPDTVKGRFTISRDNAKNTLYLQMSSLKSEDTAIYYCTRHVTVVENSMDYWGQGTSVTVSS
VL: DILLTQSPDILSVSPGERVSFSCRASQSIGTSIHWYQQRTNGSPRLLIKYVSESFSGTPSRFSGSGSGTAFTLTINSVESEDIADYYCQQTHSWPWTFGGGTKLEIK
notes: also called chimeric antibody c97A3C2H4

Further lines, the molecule ahead of its results:

B1: c8E7D9C7F5 (antibody, V domains shown)
VH: QVQLQQSGVELARPGASVKLSCKASGYTFTSYGISWVKQRTGQALEWIGEIYPRSGNTYYNEKFKGKATLTADKSSSTAYMELRSLTSEDSAVYFCARSGPITTLVATDYGMDYWGQGTSVTVSS
VL: DIVLTQSPASLAVSLGQRATISCRASKSVSTSSYSYMHWYQQKPGQPPKLLIKFASNLESGVPARFSGSGSGTDFTLNIHPVEEEDAATYYCQHSREFPYTFGGGTKLEIK
notes: also called chimeric antibody c8E7D9C7F5
OD450 nm (biotinylated hBLyS-ECD [9]): 0.53 OD450 nm
OD450 nm (biotinylated hBLyS-ECD [10]): 0.0918 OD450 nm
OD450 nm (biotinylated hBLyS-ECD [11]): 3.31 OD450 nm
OD450 nm (biotinylated hBLyS-ECD [12]): 1.56 OD450 nm
Kd [13]: 2940 pM
koff [13]: 0.000714 s⁻¹
kon [13]: 243000 M⁻¹ s⁻¹
OD450 nm (biotinylated hBLyS-ECD [14]): 0.66 OD450 nm
OD450 nm (biotinylated hBLyS-ECD [15]): 1.85 OD450 nm

B2: L9G7 (antibody, human IgG1, V domains shown)
VH: QIQLVQSGAEVKKPGASVKVSCKASGYTFTSYGISWVRQAPGQGLEWMGWISAYNGNTNYAQKLQGRVTMTTDTSTSTAYMELRSLRSDDTAVYYCARTYYDILTGYYYYGMDVWGQGTTVTVSS
VL: EIVLTQSPGTLSLSPGERATLSCRTSQSVDTYLAWYQQKPGQAPRLLIYDASNRATGIPARFSGSGSGTDFTLTISSLEPEDFAVYYCQQRSNWPLTFGGGTKVEIK
EC50 (read off the curve) (biotinylated hBLyS-ECD [16]): ~200 pM

B4: L1D12 (antibody, human IgG1, V domains shown)
VH: QVQLVQSGGGLVQPGGSLRLSCAASGFTVSSNYMSWVRQAPGKGLEWVSVIYSGGSTYYADSVKGRFTISRDNSKNTLYLQMNSLRAEDTAVYYCARGFHDILTGYGMDVWGQGTTVTVSS
VL: SSELTQDPAVSVALGQTVRITCQGDSLRNYYAGWYQQKPGQAPVLVIYGKNNRPSGIPDRFSGSSSGNTASLTITGTQAEDEADYYCSSRDNSGTHLVEFGGGTKLTVL
notes: also called LID12
EC50 (read off the curve) (biotinylated hBLyS-ECD [16]): ~100 pM
